According to patent publication US20240108738A1 (Bicycle, published 2024):
Numbered stars: 1 amine (or outer) side, 2 acyl side, 3 side chain; on linkers, the order of the positions; unused ones are H or OH. Bridge positions count the residues as written; N and C are the ends. Square brackets hold non-standard residues; d marks the D form. Ends that are not written are not given here. * marks the point of attachment. TATA = O=C(CC[*:1])N1CN(C(=O)CC[*:2])CN(C(=O)CC[*:3])C1; 2Pal = N[C@@H](Cc1ccccn1)C(=O)O; Pent4ynoyl = C#CCCC(=O)*

These binders were tested against T1, Human NKp46 Fc tag (Acro Biosystems, NC1-H5257) (human, UniProt O76036 22-255) (assay: SPR Method 1 and/or 2).
T1 construct: bought; also called Fc-tagged human NKp46
T1 sequence (O76036 22-255 limits assumed): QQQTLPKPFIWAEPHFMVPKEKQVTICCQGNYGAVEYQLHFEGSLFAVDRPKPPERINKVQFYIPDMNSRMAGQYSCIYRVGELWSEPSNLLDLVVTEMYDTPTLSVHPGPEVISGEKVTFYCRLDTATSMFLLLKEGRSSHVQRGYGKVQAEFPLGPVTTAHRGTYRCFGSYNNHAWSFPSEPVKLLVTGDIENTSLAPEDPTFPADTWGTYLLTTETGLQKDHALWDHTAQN
Experimental: The SPR analysis was run at 25° C. and a flow rate of 50 μl/min with 60 seconds association and 200-400 seconds dissociation time. Data were corrected for DMSO excluded volume effects. All data were double-referenced for blank injections and reference surface using standard processing procedures and data processing and kinetic fitting were performed using Scrubber software, version 2.0c (BioLogic Software). Data were fitted using simple 1:1 binding model allowing for mass transport effects where appropriate.
For analysis of peptide binding, a Biacore 8k+ instrument was used with a CM5 chip (Cytiva). All experiments were carried out at 25° C. Anti-human IgG (Fc) antibody (Cytiva) was immobilized on all flow cells by standard amine coupling chemistry. The running buffer was HBS-N(Cytiva, 10 mM HEPES, 0.15 M NaCl, pH 7.4) and the flow rate was 10 μL/min. The carboxymethyl dextran surface was activated with a 1:1 ratio of 0.4 M 1-ethyl-3-(3-dimethylaminopropyl) carbodiimide hydrochloride (EDC)/0.1 M N-hydroxy succinimide (NHS) (Cytiva) for 420s. […] Residual activated groups were blocked with a 420 s injection of 1 M ethanolamine (pH 8.5). The final surface density was 3000-5000 RU. Fc-tagged human NKp46 was diluted to 0.1 μM in HBS-N and was captured on flow cell 2 only of the sensor chip at a flow rate of 10 μL/min to 500-1000 RU. The buffer was then changed to PBS-P+(Cytiva) supplemented with 2% DMSO. […] The flow rate was 50 μL/min with 60 s association and 400 s dissociation. Data were corrected for DMSO volume exclusion effects. All data were double-referenced against blank injections and reference surface response using standard processing procedures. Data processing and kinetic fitting was performed using Biacore Insight Evaluation Software with Extended Screening and Characterization Extension (Cytiva). Data were fitted using steady state affinity 1:1 binding model to determine KD. Data were fitted using kinetic 1:1 binding model to determine kinetic constants where appropriate.

Kd | Binder
599 nM | ACDLTT[His3Me]NCQWGICA-NH2 (linker 2-9-14 via TATA; not fully specified, scaffold TATA) [BCY18279]
424 nM | ACDLTT[His1Me]NCQWGICA-NH2 (linker 2-9-14 via TATA; not fully specified, scaffold TATA) [BCY18281]
414 nM | ACNLQNPCMKFPCAK(Pent4ynoyl)-NH2 (linker 2-8-13 via TATA (inferred), scaffold TATA) [BCY18004]
1270 nM | ACDLTT[2Pal]NCQWGICA-NH2 (linker 2-9-14 via TATA; N-terminus assumed; SMILES CC[C@H](C)[C@@H]1NC(=O)CNC(=O)[C@H](Cc2c[nH]c3ccccc23)NC(=O)[C@H](CCC(N)=O)NC(=O)[C@@H]2CSCCC(=O)N3CN(CN(C3)C(=O)CCSC[C@@H](C(=O)N[C@@H](C)C(N)=O)NC1=O)C(=O)CCSC[C@H](NC(=O)[C@H](C)N)C(=O)N[C@@H](CC(=O)O)C(=O)N[C@@H](CC(C)C)C(=O)N[C@@H]([C@@H](C)O)C(=O)N[C@@H]([C@@H](C)O)C(=O)N[C@@H](Cc1ccccn1)C(=O)N[C@@H](CC(N)=O)C(=O)N2, scaffold TATA) [BCY18280]
396 nM | ACDLTTHNCQWGICA-NH2 (linker 2-9-14 via TATA; also: scaffold TATA, TATB or TBMT, scaffold TATA) [BCY15107]
335 nM | ACDLTLHNCQWGICA-NH2 (linker 2-9-14 via TATA; also: scaffold TATA, TATB or TBMT, scaffold TATA) [BCY18278]
1460 nM | ACDLTTHNCQW[dA]ICA-NH2 (linker 2-9-14 via TATA; N-terminus assumed; SMILES CC[C@H](C)[C@@H]1NC(=O)[C@@H](C)NC(=O)[C@H](Cc2c[nH]c3ccccc23)NC(=O)[C@H](CCC(N)=O)NC(=O)[C@@H]2CSCCC(=O)N3CN(CN(C3)C(=O)CCSC[C@@H](C(=O)N[C@@H](C)C(N)=O)NC1=O)C(=O)CCSC[C@H](NC(=O)[C@H](C)N)C(=O)N[C@@H](CC(=O)O)C(=O)N[C@@H](CC(C)C)C(=O)N[C@@H]([C@@H](C)O)C(=O)N[C@@H]([C@@H](C)O)C(=O)N[C@@H](Cc1c[nH]cn1)C(=O)N[C@@H](CC(N)=O)C(=O)N2, scaffold TATA) [BCY18292]
326 nM | ACNLTTHNCQWGICA-NH2 (linker 2-9-14 via TATA; also: scaffold TATA, TATB or TBMT, scaffold TATA) [BCY18273]
543 nM | Ac-ACDLTTHNCQWGICA-NH2 (linker 2-9-14 via TATA, scaffold TATA) [BCY18261]
2470 nM | ACYLPDYLCGDK(Pent4ynoyl)YCA-NH2 (linker 2-9-14 via TATA; N-terminus assumed; SMILES C#CCCC(=O)NCCCC[C@@H]1NC(=O)[C@H](CC(=O)O)NC(=O)CNC(=O)[C@@H]2CSCCC(=O)N3CN(CN(C3)C(=O)CCSC[C@@H](C(=O)N[C@@H](C)C(N)=O)NC(=O)[C@H](Cc3ccc(O)cc3)NC1=O)C(=O)CCSC[C@H](NC(=O)[C@H](C)N)C(=O)N[C@@H](Cc1ccc(O)cc1)C(=O)N[C@@H](CC(C)C)C(=O)N1CCC[C@H]1C(=O)N[C@@H](CC(=O)O)C(=O)N[C@@H](Cc1ccc(O)cc1)C(=O)N[C@@H](CC(C)C)C(=O)N2, scaffold TATA) [BCY16842]
729 nM | ACLLHDHCPNTHPKLCAK(Pent4ynoyl)-NH2 (linker 2-8-16 via TATA (inferred), scaffold TATA) [BCY18005]
1240 nM | Ac-CDLTTHNCQWGIC-NH2 (linker 1-8-13 via TATA, scaffold TATA) [BCY18260]
60 nM | ACYLPDYLCK(Pent4ynoyl)DEYCA-NH2 (linker 2-9-14 via TATA; N-terminus assumed; SMILES C#CCCC(=O)NCCCC[C@@H]1NC(=O)[C@@H]2CSCCC(=O)N3CN(CN(C3)C(=O)CCSC[C@@H](C(=O)N[C@@H](C)C(N)=O)NC(=O)[C@H](Cc3ccc(O)cc3)NC(=O)[C@H](CCC(=O)O)NC(=O)[C@H](CC(=O)O)NC1=O)C(=O)CCSC[C@H](NC(=O)[C@H](C)N)C(=O)N[C@@H](Cc1ccc(O)cc1)C(=O)N[C@@H](CC(C)C)C(=O)N1CCC[C@H]1C(=O)N[C@@H](CC(=O)O)C(=O)N[C@@H](Cc1ccc(O)cc1)C(=O)N[C@@H](CC(C)C)C(=O)N2, scaffold TATA) [BCY16840]
42 nM | ACYLPK(Pent4ynoyl)YLCGDEYCA-NH2 (linker 2-9-14 via TATA; N-terminus assumed; SMILES C#CCCC(=O)NCCCC[C@@H]1NC(=O)[C@@H]2CCCN2C(=O)[C@H](CC(C)C)NC(=O)[C@H](Cc2ccc(O)cc2)NC(=O)[C@@H](NC(=O)[C@H](C)N)CSCCC(=O)N2CN3CN(C2)C(=O)CCSC[C@@H](C(=O)N[C@@H](C)C(N)=O)NC(=O)[C@H](Cc2ccc(O)cc2)NC(=O)[C@H](CCC(=O)O)NC(=O)[C@H](CC(=O)O)NC(=O)CNC(=O)[C@H](CSCCC3=O)NC(=O)[C@H](CC(C)C)NC(=O)[C@H](Cc2ccc(O)cc2)NC1=O, scaffold TATA) [BCY16837]
8.1 nM | ACYLPDYLC[dK](Pent4ynoyl)DEYCA-NH2 (linker 2-9-14 via TATA; N-terminus assumed; SMILES C#CCCC(=O)NCCCC[C@H]1NC(=O)[C@@H]2CSCCC(=O)N3CN(CN(C3)C(=O)CCSC[C@@H](C(=O)N[C@@H](C)C(N)=O)NC(=O)[C@H](Cc3ccc(O)cc3)NC(=O)[C@H](CCC(=O)O)NC(=O)[C@H](CC(=O)O)NC1=O)C(=O)CCSC[C@H](NC(=O)[C@H](C)N)C(=O)N[C@@H](Cc1ccc(O)cc1)C(=O)N[C@@H](CC(C)C)C(=O)N1CCC[C@H]1C(=O)N[C@@H](CC(=O)O)C(=O)N[C@@H](Cc1ccc(O)cc1)C(=O)N[C@@H](CC(C)C)C(=O)N2, scaffold TATA) [BCY17662]
3010 nM | ACYLPDYLCGDEK(Pent4ynoyl)CA-NH2 (linker 2-9-14 via TATA; N-terminus assumed; SMILES C#CCCC(=O)NCCCC[C@@H]1NC(=O)[C@H](CCC(=O)O)NC(=O)[C@H](CC(=O)O)NC(=O)CNC(=O)[C@@H]2CSCCC(=O)N3CN(CN(C3)C(=O)CCSC[C@@H](C(=O)N[C@@H](C)C(N)=O)NC1=O)C(=O)CCSC[C@H](NC(=O)[C@H](C)N)C(=O)N[C@@H](Cc1ccc(O)cc1)C(=O)N[C@@H](CC(C)C)C(=O)N1CCC[C@H]1C(=O)N[C@@H](CC(=O)O)C(=O)N[C@@H](Cc1ccc(O)cc1)C(=O)N[C@@H](CC(C)C)C(=O)N2, scaffold TATA) [BCY16843]
